Data as given in article PMC4930773, “Cataract-causing mutation S228P promotes βB1-crystallin aggregation and degradation by separating two interacting loops in C-terminal domain” (Protein & Cell, 2016).

Molecular target: T1, wild type βB1-crystallin (human, UniProt P53674 1-252)
T1 construct: human βB1-crystallin (CRYBB1), cloned from a human lens cDNA library into pET28a; no cleavage of the tag is described; also called WT βB1; WT; source: E. coli BL21 (DE3), purified (Ni-NTA, Superdex 200 gel filtration); not shown: His tag, N-terminal, kept
T1 sequence (looked up): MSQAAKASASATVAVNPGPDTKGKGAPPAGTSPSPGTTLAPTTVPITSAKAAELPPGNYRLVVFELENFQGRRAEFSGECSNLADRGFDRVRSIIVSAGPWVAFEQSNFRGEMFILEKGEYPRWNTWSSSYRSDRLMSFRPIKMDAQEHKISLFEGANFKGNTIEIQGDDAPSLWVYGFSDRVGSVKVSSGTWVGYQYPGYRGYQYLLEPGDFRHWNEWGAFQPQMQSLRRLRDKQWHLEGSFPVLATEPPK
Test: SEC; equal molar homomers mixed and incubated at 37°C, aggregates removed by centrifugation; Superdex 200, buffer A (20 mmol/L sodium phosphate, 150 mmol/L NaCl, 1 mmol/L EDTA, 1 mmol/L DTT, pH 7.0), 30 µmol/L protein; SDS-PAGE of soluble and insoluble fractions alongside
Details: both partners purified

binding result: binds
B1: βA3-crystallin (natural protein, human, UniProt P05813 1-215, looked up)
chain: METQAEQQELETLPTTKMAQTNPTPGSLGPWKITIYDQENFQGKRMEFTSSCPNVSERSFDNVRSLKVESGAWIGYEHTSFCGQQFILERGEYPRWDAWSGSNAYHIERLMSFRPICSANHKESKMTIFEKENFIGRQWEISDDYPSLQAMGWFNNEVGSMKIQSGAWVCYQYPGYRGYQYILECDHHGGDYKHWREWGSHAQTSQIQSIRRIQQ
notes: source: E. coli BL21 (DE3), purified (Ni-NTA, Superdex 200 gel filtration)
